Reference: patent US20120231006A1 (Amgen, published 2012)

Columns and labels:
[1] = target: T1, human Orai1 (human, UniProt Q96D31 1-301); assay: cell-based or functional assay
[2] = target: T2, hOrai1-mOrai1 ECL2 chimeric protein (human/mouse chimera, UniProt Q96D31 1-301); assay: FACS, 293EBNA; set-up: concentration or dose not given beside the values
T2 construct: human Orai1 with mouse ECL2; also called Ch
Procedure: (§1) FACS binding analysis. Transfected 293EBNA cells transiently expressed hOrai1-mOrai1 ECL2 or mOrai1-hOrai1 ECL2 chimera. The transfected cells were harvested at 48 hours post-transfection. Cells transfected with pcDNA3.1 were used as negative controls. Cells were washed once with ice-cold 1×PBS, resuspended in ice-cold FACS buffer (1×D-PBS+2% goat serum), and 2×10⁵ cells in 100 μL were stained per antibody combination. All antibody incubation steps were performed on ice for 1 hour. […] Next, the unlabelled antibody was detected using goat F(ab′)₂ anti-mouse or anti-human IgG-phycoerythrin (IgG-PE), followed by a wash with 200 μL of ice-cold FACS buffer before flow cytometry analysis. Unstained cells and cells stained with detecting antibodies were used as negative controls. The values of relative level of fluorescence were calculated using FCS Express (De Novo Software) and mean values were calculated using log-transformed data (geometric mean). The results of the FACS analysis are shown in FIG. 15A-B, which supports the conclusion that the hOrai1 ECL2 domain is the region of hOrai1 where antibodies of the present invention bind.
(§2) Representative results of FACS analysis of binding to the mutant hOrai1-mOrai1 ECL2 chimera described above by exemplary anti-hOrai1 antibodies of the present invention are shown in FIG. 17A-D, Table 10A and Table 10B below. Table 10A (Campaign 1) and Table 10B (Campaign 2) show the gain in binding ability of exemplary monoclonal antibodies to hOrai 1-mOrai 1 ECL2 chimera mutants as determined by FACS.

[3] = target: T3, hOrai1-mOrai1 ECL2 (…) protein (human/mouse chimera, UniProt Q96D31 1-301); assay: FACS, 293EBNA; set-up: concentration or dose not given beside the values
T3 construct: also called Ch
Procedure: as §1, §2
T3 sequence (Q96D31 other isoform, or with tags, fused parts or gaps): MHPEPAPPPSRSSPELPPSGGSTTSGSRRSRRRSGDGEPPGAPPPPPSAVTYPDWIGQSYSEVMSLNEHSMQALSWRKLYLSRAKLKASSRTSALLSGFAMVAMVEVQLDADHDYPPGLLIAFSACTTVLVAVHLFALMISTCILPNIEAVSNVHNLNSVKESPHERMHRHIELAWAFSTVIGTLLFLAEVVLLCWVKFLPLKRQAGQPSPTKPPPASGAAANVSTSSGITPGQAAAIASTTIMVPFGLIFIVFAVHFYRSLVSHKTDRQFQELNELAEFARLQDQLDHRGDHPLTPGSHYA

[4] = target: T4, hOrai1-mOrai1 ECL2 (PASGAA) protein (human/mouse chimera, UniProt Q96D31 1-301); assay: FACS, 293EBNA; set-up: concentration or dose not given beside the values
T4 construct: also called Ch
Procedure: as §1, §2

[5] = target: T5, hOrai1-mOrai1 ECL2 (AANVST) protein (human/mouse chimera, UniProt Q96D31 1-301); assay: FACS, 293EBNA; set-up: concentration or dose not given beside the values
T5 construct: also called Ch
Procedure: as §1, §2

[6] = target: T6, hOrai1-mOrai1 ECL2 (GAA) protein (human/mouse chimera, UniProt Q96D31 1-301); assay: FACS, 293EBNA; set-up: concentration or dose not given beside the values
T6 construct: also called Ch
Procedure: as §1, §2

[7] = target: T7, hOrai1-mOrai1 ECL2 (VST) protein (human/mouse chimera, UniProt Q96D31 1-301); assay: FACS, 293EBNA; set-up: concentration or dose not given beside the values
T7 construct: also called Ch
Procedure: as §1, §2

[8] = target: T1, human Orai1; assay: cell-based or functional assay; remark: listed apart in the source
[9] = target: T8, mOrai1-hOrai1 ECL2 chimeric protein (human/mouse chimera, UniProt Q8BWG9 1-304 (mouse entry)); assay: FACS, 293EBNA, RFI-POC grade; set-up: concentration or dose not given beside the values
T8 construct: mouse Orai1 with human ECL2; also called Ch

[10] = target: T9, hOrai1-mOrai1 ECL2 (…) protein (human/mouse chimera, UniProt Q96D31 1-301); assay: FACS, 293EBNA, RFI-POC grade; set-up: concentration or dose not given beside the values
T9 construct: also called Ch
T9 sequence (Q96D31 other isoform, or with tags, fused parts or gaps): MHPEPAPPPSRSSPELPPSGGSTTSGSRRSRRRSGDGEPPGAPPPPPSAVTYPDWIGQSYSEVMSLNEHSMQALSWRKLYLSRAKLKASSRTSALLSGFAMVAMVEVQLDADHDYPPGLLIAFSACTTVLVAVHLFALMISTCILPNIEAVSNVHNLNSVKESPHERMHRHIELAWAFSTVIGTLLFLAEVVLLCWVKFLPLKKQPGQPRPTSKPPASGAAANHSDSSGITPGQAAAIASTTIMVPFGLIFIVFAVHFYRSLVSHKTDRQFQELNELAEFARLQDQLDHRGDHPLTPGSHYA

[11] = target: T10, hOrai1-mOrai1 ECL2 (…) protein (human/mouse chimera, UniProt Q96D31 1-301); assay: FACS, 293EBNA, RFI-POC grade; set-up: concentration or dose not given beside the values; remark: listed apart in the source
T10 construct: also called Ch
T10 sequence (Q96D31 other isoform, or with tags, fused parts or gaps): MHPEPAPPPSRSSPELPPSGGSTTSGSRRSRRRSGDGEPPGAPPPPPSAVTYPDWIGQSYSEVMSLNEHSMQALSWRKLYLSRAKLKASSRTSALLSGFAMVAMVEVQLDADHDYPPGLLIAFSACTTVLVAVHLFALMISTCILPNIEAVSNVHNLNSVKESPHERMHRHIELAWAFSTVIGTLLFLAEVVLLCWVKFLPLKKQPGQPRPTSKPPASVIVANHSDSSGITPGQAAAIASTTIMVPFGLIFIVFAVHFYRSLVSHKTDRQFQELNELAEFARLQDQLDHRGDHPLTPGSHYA

[12] = target: T11, hOrai1-mOrai1 ECL2 (…) protein (human/mouse chimera, UniProt Q96D31 1-301); assay: FACS, 293EBNA, RFI-POC grade; set-up: concentration or dose not given beside the values; remark: listed apart in the source
T11 construct: also called Ch
T11 sequence (Q96D31 other isoform, or with tags, fused parts or gaps): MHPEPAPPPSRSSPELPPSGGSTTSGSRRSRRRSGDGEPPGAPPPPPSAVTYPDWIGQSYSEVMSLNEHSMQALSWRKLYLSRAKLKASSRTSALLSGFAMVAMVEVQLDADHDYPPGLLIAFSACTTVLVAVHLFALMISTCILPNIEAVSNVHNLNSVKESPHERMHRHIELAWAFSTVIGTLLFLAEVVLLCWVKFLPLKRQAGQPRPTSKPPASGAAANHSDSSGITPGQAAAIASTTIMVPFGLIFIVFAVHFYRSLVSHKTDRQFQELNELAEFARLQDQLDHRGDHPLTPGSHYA

[13] = target: T12, hOrai1-mOrai1 ECL2 (RPTSKPPA) protein (human/mouse chimera, UniProt Q96D31 1-301); assay: FACS, 293EBNA, RFI-POC grade; set-up: concentration or dose not given beside the values
T12 construct: also called Ch

[14] = target: T13, hOrai1-mOrai1 ECL2 (SKPPA) protein (human/mouse chimera, UniProt Q96D31 1-301); assay: FACS, 293EBNA, RFI-POC grade; set-up: concentration or dose not given beside the values
T13 construct: also called Ch

[15] = target: T14, mOrai1-hOrai1 ECL2 (…) protein (human/mouse chimera, UniProt Q8BWG9 1-304 (mouse entry)); assay: FACS, 293EBNA transfectants [D00028 FIG. 16B]
T14 construct: also called Ch
Source text: (§3) FIG. 16A-D illustrates the results of FACS analysis showing binding to the indicated mOrai1-hOrai1 ECL2 chimeric mutants expressed on the surface of HEK-293-EBNA cells. Transfected cells were stained first with recombinant monoclonal antibodies then counter-stained with a secondary phycoerythrin-labeled goat (“Gt”) anti-human (“Hu”) IgG F(ab′)₂ antibody fragment and visualized using FACS. In FIG. 16B and FIG. 16D, The values of Relative Fluorescence Intensity as Percent of Control (RFI-POC) are calculated from the relative fluorescence intensity geometric mean (Geo Mean). The geometric mean is an average calculated by multiplying a series of numbers and taking the nth root where n is the number of numbers in the series. It is a statistical average of a set of transformed numbers often used to represent a central tendency in a highly variable data set that minimizes the effects of extreme values.
(§4) Table 11A and Table 11B feature a schematic representation of the POC data from FIG. 16B and FIG. 16D, respectively, where the binding results are recorded as (+++) denoting binding POC from 40% to 100%, (++) for POC of 5% to less than 40%, (+) for POC from 1% to less than 5% and (−) as lack of binding with POC less than 1%.

[16] = target: T15, mOrai1-hOrai1 ECL2 (AESVIV) protein (human/mouse chimera, UniProt Q8BWG9 1-304 (mouse entry)); assay: FACS, 293EBNA transfectants [D00028 FIG. 16B]
T15 construct: also called Ch
Source text: as §3, §4

T1 sequence (Q96D31 whole entry): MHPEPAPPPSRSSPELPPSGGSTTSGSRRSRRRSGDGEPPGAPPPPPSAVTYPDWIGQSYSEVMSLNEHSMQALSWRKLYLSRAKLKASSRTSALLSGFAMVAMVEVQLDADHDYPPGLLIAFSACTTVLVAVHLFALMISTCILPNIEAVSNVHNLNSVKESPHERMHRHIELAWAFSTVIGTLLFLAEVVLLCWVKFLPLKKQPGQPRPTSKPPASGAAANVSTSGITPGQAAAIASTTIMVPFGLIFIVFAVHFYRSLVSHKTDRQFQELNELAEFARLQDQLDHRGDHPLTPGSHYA
T12 sequence (Q96D31 other isoform, or with tags, fused parts or gaps): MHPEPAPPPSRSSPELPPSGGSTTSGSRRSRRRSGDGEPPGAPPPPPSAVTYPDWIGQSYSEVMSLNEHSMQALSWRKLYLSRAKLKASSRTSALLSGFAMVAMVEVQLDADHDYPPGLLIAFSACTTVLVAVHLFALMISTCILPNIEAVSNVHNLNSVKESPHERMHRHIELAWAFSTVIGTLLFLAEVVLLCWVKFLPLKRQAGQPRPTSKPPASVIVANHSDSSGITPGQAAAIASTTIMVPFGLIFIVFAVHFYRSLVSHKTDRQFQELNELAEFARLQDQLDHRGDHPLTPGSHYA
T4 sequence (Q96D31 other isoform, or with tags, fused parts or gaps): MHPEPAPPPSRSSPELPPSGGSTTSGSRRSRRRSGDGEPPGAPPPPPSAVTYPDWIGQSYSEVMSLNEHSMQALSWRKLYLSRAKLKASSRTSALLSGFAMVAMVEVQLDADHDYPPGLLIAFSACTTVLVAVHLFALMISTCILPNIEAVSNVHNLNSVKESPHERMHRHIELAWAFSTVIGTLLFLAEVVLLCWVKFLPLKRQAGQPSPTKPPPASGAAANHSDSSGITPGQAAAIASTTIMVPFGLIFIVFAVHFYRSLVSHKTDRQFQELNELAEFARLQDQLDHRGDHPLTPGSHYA
T7 sequence (Q96D31 other isoform, or with tags, fused parts or gaps): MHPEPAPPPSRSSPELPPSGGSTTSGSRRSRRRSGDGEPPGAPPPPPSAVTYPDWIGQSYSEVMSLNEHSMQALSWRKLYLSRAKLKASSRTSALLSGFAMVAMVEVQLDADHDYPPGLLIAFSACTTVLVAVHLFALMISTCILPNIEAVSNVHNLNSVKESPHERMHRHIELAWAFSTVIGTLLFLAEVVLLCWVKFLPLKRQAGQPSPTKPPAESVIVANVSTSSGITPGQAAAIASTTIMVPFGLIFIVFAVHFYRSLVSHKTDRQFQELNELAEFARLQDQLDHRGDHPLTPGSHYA
T2 sequence (Q96D31 other isoform, or with tags, fused parts or gaps mutant): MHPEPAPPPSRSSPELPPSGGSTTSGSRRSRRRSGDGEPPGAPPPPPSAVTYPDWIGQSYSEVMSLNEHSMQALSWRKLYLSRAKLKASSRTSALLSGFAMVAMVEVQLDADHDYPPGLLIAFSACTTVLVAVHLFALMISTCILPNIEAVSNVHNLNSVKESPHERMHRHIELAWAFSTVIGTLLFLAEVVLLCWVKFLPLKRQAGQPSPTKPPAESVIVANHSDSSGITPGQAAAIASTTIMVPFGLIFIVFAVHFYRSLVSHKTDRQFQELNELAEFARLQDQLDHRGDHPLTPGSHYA
T13 sequence (Q96D31 other isoform, or with tags, fused parts or gaps): as the sequence (Q96D31 other isoform, or with tags, fused parts or gaps mutant) above, with K213S, P214K, A216P, E217A counted along it
T6 sequence (Q96D31 other isoform, or with tags, fused parts or gaps): as the sequence (Q96D31 other isoform, or with tags, fused parts or gaps mutant) above, with V219G, I220A, V221A counted along it
T8 sequence (Q8BWG9 other isoform, or with tags, fused parts or gaps mutant): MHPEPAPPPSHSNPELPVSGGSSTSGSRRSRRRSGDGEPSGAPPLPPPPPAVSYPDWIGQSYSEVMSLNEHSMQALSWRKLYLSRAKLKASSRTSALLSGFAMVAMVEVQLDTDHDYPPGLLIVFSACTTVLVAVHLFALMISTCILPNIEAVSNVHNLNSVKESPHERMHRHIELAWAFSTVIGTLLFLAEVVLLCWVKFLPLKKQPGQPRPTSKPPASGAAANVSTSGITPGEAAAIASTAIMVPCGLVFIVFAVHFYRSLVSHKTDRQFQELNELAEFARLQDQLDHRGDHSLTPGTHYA
T5 sequence (Q96D31 other isoform, or with tags, fused parts or gaps): as the sequence (Q96D31 other isoform, or with tags, fused parts or gaps mutant) above, with V221A, H224V, D226T counted along it
T14 sequence (Q8BWG9 other isoform, or with tags, fused parts or gaps): as the sequence (Q8BWG9 other isoform, or with tags, fused parts or gaps mutant) above, with P218A, A219E, G221V, A222I, A223V, V226H, T228D counted along it
T15 sequence (Q8BWG9 other isoform, or with tags, fused parts or gaps): as the sequence (Q8BWG9 other isoform, or with tags, fused parts or gaps mutant) above, with P218A, A219E, G221V, A222I, A223V counted along it

IC50 IFN-γ, whole blood Donor A, recombinant mAb [1] [nM] | IC50 IFN-γ, whole blood Donor B, recombinant mAb [1] [nM] | IC50 IL-2, whole blood Donor A, recombinant mAb [1] [nM] | IC50 IL-2, whole blood Donor B, recombinant mAb [1] [nM] | percent of control (POC) of FACS Geo Mean [2] [%] | percent of control (POC) of FACS Geo Mean [3] [%] | percent of control (POC) of FACS Geo Mean [4] [%] | percent of control (POC) of FACS Geo Mean [5] [%] | percent of control (POC) of FACS Geo Mean [6] [%] | percent of control (POC) of FACS Geo Mean [7] [%] | IC50, NFAT-mediated luciferase assay (FIG. 6B) [8] [nM] | IC50, NFAT-mediated luciferase assay (FIG. 6C) [8] [nM] | percent of control (POC) of FACS Geo Mean [9] [%] | percent of control (POC) of FACS Geo Mean [10] [%] | percent of control (POC) of FACS Geo Mean [11] [%] | percent of control (POC) of FACS Geo Mean [12] [%] | percent of control (POC) of FACS Geo Mean [13] [%] | percent of control (POC) of FACS Geo Mean [14] [%] | binding result [15] | binding result [16] | Binder
 |  |  |  | < 1 | < 1 | < 1 | < 1 | < 1 | < 1 | 2.8 | 2.7 | 40 to 100 | 40 to 100 | 40 to 100 | 40 to 100 | 40 to 100 | 5 to 40 |  |  | mAb 2D2.1 (antibody, human IgG2, lambda, V domains shown, fully human IgG2 lambda, Campaign 1; also called mAb 2D.1) VH: QVQLQQWGAGLLKPSETLSLTCAVYGGSFSGYYWSWIRQPPGKGLEWIGEIDHSGRINYNPALKSRLTISVDTSKNQFSLKLSSVTAADTAVYYCARAGSGGYEDWFDPWGQGTLVTVSS VL: QSVLTQPPSVSGAPGQRVTISCTGSSSNIGAGYNVHWYQQFPRTDPKLLIYVYNIRPSGVPDRFSGSRSGTSASLAITGLQTEDEADYYCQSYDSSLSGVVFGGGTKLTVLG
 |  |  |  | < 1 | < 1 | < 1 | < 1 | < 1 | < 1 | 4.2 | 3.5 | 40 to 100 | 40 to 100 | 40 to 100 | 40 to 100 | 40 to 100 | 5 to 40 | binds | binds | mAb 2B7.1 (antibody, human IgG2, V domains shown, fully human, Campaign 1) VH: QVQLQQWGAGLLKPSETLSLTCAVYGGSFSGYYWSWIRQPPGKGLEWIGEIDHSGSTNYNPALKSRLTISVDTSKNQFSLKLSSVTAADTAVYYCARAGSGGYEDWFDPWGQGTLVTVSS VL: QSVLTQPPSVSGAPGQRVTISCTGSSSNIGTGYNVHWYQQFPRTDPKLLIYVYNIRPSGVPDRFSGSRSGTSASLAITGLQTEDEADYYCQSYDSSLSGVVFGGGTKLTVLG

More lines, now with the values behind:

Binder | IC50 IFN-γ, whole blood Donor A, recombinant mAb [1] [nM] | IC50 IFN-γ, whole blood Donor B, recombinant mAb [1] [nM] | IC50 IL-2, whole blood Donor A, recombinant mAb [1] [nM] | IC50 IL-2, whole blood Donor B, recombinant mAb [1] [nM] | percent of control (POC) of FACS Geo Mean [2] [%] | percent of control (POC) of FACS Geo Mean [3] [%] | percent of control (POC) of FACS Geo Mean [4] [%] | percent of control (POC) of FACS Geo Mean [5] [%] | percent of control (POC) of FACS Geo Mean [6] [%] | percent of control (POC) of FACS Geo Mean [7] [%] | IC50, NFAT-mediated luciferase assay (FIG. 6B) [8] [nM] | IC50, NFAT-mediated luciferase assay (FIG. 6C) [8] [nM] | percent of control (POC) of FACS Geo Mean [9] [%] | percent of control (POC) of FACS Geo Mean [10] [%] | percent of control (POC) of FACS Geo Mean [11] [%] | percent of control (POC) of FACS Geo Mean [12] [%] | percent of control (POC) of FACS Geo Mean [13] [%] | percent of control (POC) of FACS Geo Mean [14] [%] | binding result [15] | binding result [16]
mAb 5F7.1 (antibody, human IgG2, lambda, fully human IgG2 lambda, Campaign 2) heavy: QVQLVQSGAEVKKPGASVKVPCKASGYTFTDYYINWVRQAPGQGLEWMGWINPNNGGTNYAQKFQGRVTMTRDTSISTAYMELRRLRSDDTAVYYCARERGGYEDWFDPWGQGTLVTVSSASTKGPSVFPLAPCSRSTSESTAALGCLVKDYFPEPVTVSWNSGALTSGVHTFPAVLQSSGLYSLSSVVTVPSSNFGTQTYTCNVDHKPSNTKVDKTVERKCCVECPPCPAPPVAGPSVFLFPPKPKDTLMISRTPEVTCVVVDVSHEDPEVQFNWYVDGVEVHNAKTKPREEQFNSTFRVVSVLTVVHQDWLNGKEYKCKVSNKGLPAPIEKTISKTKGQPREPQVYTLPPSREEMTKNQVSLTCLVKGFYPSDIAVEWESNGQPENNYKTTPPMLDSDGSFFLYSKLTVDKSRWQQGNVFSCSVMHEALHNHYTQKSLSLSPGK light: QSVLTQPPSVSGAPGQRVTISCTGSSSNIGAGFDVHWYQQLPVTAPKLLIYGNRNRPSGVPARFSGSKSGTSASLAITGLQAEDEAVYYCQSYDSSLTVFGGGTKLTVLGQPKANPTVTLFPPSSEELQANKATLVCLISDFYPGAVTVAWKADGSPVKAGVETTKPSKQSNNKYAASSYLSLTPEQWKSHRSYSCQVTHEGSTVEKTVAPTECS | 0.28 | 10.7 | 1.32 | 2.52 |  |  |  |  |  |  |  |  |  |  |  |  |  |  |  | 
mAb 5A4.2 (antibody, human IgG2, lambda, V domains shown, fully human IgG2 lambda, Campaign 2) VH: QVQLVQSGAEVKKPGASVKVSCKASGYTFTDYYMNWVRQAPGQGLEWMGWINPNSGGTKYAQKFQGRVTMTRDTSIRTAYMELSRLRSDDTAVYYCSREYGGNSDWFDPWGQGTLVTVSS VL: QSVLTQPPSVSGAPGQRVTISCTGSSSNIGAGYDVHWYQQLPGTAPKLLIYGNSNRPSGVPDRFSGSKSGTSASLAITGLQAEDEADYYCQSYDNRLSDSVVIGGGTKLTVQG | 0.59 | 3.59 | 1.42 | 0.87 |  |  |  |  |  |  |  |  |  |  |  |  |  |  |  | 
mAb 5B1.1 (antibody, human IgG2, lambda, V domains shown, fully human IgG2 lambda, Campaign 2; also called mAb 5Bl1.1) VH: QVQLVQSGAEVKKPGASVKVSCKASGYTFTDYYINWVRQAPGQGLEWMGWINPNSGGSSYAQKFQGRVTMTRDTSISTAHMELIRLRSDDTAVYYCARERGGIEDWFDPWGQGTLVTVSS VL: QSVLTQPPSVSGAPGQRVTISCTGSSSNIGAGYDVHWYQQLPGTAPKLLIYGNSNRPSGVPDRFSGSKSGTSASLAITKFQAEDEAVYYCQSYGSGLSGVVFGGGTKLTVLG | 0.52 | 34.8 | 2.08 | 9.52 |  |  |  |  |  |  |  |  |  |  |  |  |  |  |  | 
mAb 5F2.1 (antibody, human IgG2, lambda, V domains shown, fully human IgG2 lambda, Campaign 2) VH: QVQLVQSGAEVKKPGASVKVSCKASGYTFTDYYMNWVRQAPGQGLEWMGWINPNSGGTHYAQKFQGRVTMTRDTSISTAYMELSRLRSDDTAVYYCAREYGGYSDWFDPWGQGTLVTVSS VL: QSVLTQPPSVSGAPGQRVTISCTGSRSNIGAGYDVHWYQQLPRTAPKLLIYDNSNRPSGVPDRFSGSKSGSSASLAITGLQAEDEADYYCQSYDNSLSDSVLIGGGTKLTVLG | 11.1 | 9.84 | 2.42 | 2.43 |  |  |  |  |  |  |  |  |  |  |  |  |  |  |  | 
